Assay [1] addresses T1, CD2 domain of cpSRP43.
T1 chain: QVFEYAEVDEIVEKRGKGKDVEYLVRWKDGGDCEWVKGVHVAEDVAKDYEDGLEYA
In words: ITC. For orientation: Isothermal titration calorimetry measures the heat released or taken up as one component is titrated into another.

For assay [2], the target named is T1, CD2 domain of cpSRP43. In words: ITC.

Like-named read-outs stand apart in the source and are kept apart here.

B1: 54-peptide (peptide)
chain: APPGTARRKRKADS
With B1, the dissociation constant (Kd) – broadly, the constant that tells how readily two partners part at equilibrium – came to 1420 nM with CD2 domain of cpSRP43 [1] and 1270 nM in the assay with CD2 domain of cpSRP43 [2].

Source of the values: PMC12415521 (Methods in molecular biology (Clifton, N.J.), 2023).
